Assay results published in PMC7858072.

Biological target: MBP-FhtR (faecalis heme transport regulator fused to the maltose binding protein) (Enterococcus faecalis OG1RF)
Experiment: SEC; 40 uM apo- or holo- (hemin-complexed) MBP-FhtR in 100 ul loaded on Superdex 200 Increase 10/300 GL; 20 mM HEPES (pH 7), 300 mM NaCl; read at OD280 and OD410

Substance: MBP-FhtR (faecalis heme transport regulator fused to the maltose binding protein) (natural protein)
- stoichiometry N: 2
